How the values were obtained:
Conditions in all cases: both partners purified
Sepharose 4B-coupled CaM = target: T1, Sepharose 4B-coupled CaM (UniProt P0DP23 1-149, coupled to Sepharose 4B); test: pull-down; purified GST-JMY WH2#1 or GST with immobilised CaM; IP buffer with 150 mM NaCl and 2 µM Ca2+ (1 mM EGTA for comparison); immunoblot
T1 construct: calmodulin (CaM), bought coupled to Sepharose 4B; also called immobilized CaM; CaM matrix; source: bought: GE Healthcare (coupled to Sepharose 4B)

untagged recombinant CaM = target: T2, untagged recombinant CaM (UniProt P0DP23 1-149); test: pull-down; in vitro reconstitution: GST-JMY WH2#1 immobilised, untagged CaM and rabbit skeletal muscle α-actin together; 10 mM HEPES pH 7.4, 250 mM NaCl, 0.1 mM MgCl2, 1% Triton X-100, with 1 mM EGTA or 20 µM Ca2+; quantitative fluorescence immunoblot
T2 construct: calmodulin (CaM), subcloned from Mito-mCherry-CaM into pGEX-6P; A few vector residues probably remain after PreScission cleavage; also called calmodulin; source: E. coli BL21, purified as GST-CaM (pGEX-6P), GST removed with PreScission Protease

[1] = target: rabbit skeletal muscle actin (rabbit, UniProt P68135 1-377); test: as above

Measured: binding result

B1: GST-JMY WH2#1 (domain or fragment)
chain: GNERSIPKSASAPAAHLFDSSQLVSARKKLRKTVEGLQRRRVS
notes: Mus musculus JMY, NP_067285.2, residues 841-883 (subcloned from GFP-JMY WH2#1 into pGEX-4T1); pGEX-4T1 by surmise puts GST at the N-terminus; also called first WH2 domain of JMY and flanking regions; source: E. coli BL21, purified (glutathione sepharose)
binds: Sepharose 4B-coupled CaM | untagged recombinant CaM | [1]
